Publication PMC3907796, “The C-Terminal Region of G72 Increases D-Amino Acid Oxidase Activity” (International Journal of Molecular Sciences, 2013)
No end group written: not given here. *: point of attachment. Biotin = O=C1N[C@H]2[C@H](CS[C@H]2CCCCC(=O)*)N1

T1: BD-G72 (full-length G72 N-terminally tagged with the binding domain) (UniProt P59103 1-153)
T1 construct: probably pGBKT7; The BD fusion was detected with anti-c-Myc; also called full-length BD-G72; G72 isoform 1; source: yeast two-hybrid fusion, S. cerevisiae AH109; not shown: from the vector pGBDT7), N-terminal, kept
T1 sequence (looked up): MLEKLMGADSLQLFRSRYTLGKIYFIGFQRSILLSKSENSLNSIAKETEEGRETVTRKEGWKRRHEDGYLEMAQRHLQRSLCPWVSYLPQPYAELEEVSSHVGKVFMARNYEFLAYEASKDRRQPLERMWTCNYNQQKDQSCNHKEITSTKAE

B1: DAO-6H (recombinant D-amino acid oxidase with C-terminal (His)6) (enzyme)
chain: not shown
notes: D-amino acid oxidase (DAO), cDNA amplified with DAO-F'-NdeI/DAO-R'-XhoI (the primers of the full-length 1044 bp cDNA, GI:30524341), in pET23a(+); Detected in the pull-down with anti-His-tag; also called recombinant DAO; source: E. coli BL21(DE3)pLysS, purified (HisTrap FF); not shown: His6, C-terminal, kept
B2: AD-DAO (D-amino acid oxidase N-terminally tagged with the activation domain) (enzyme)
chain: not shown
notes: D-amino acid oxidase (DAO), full-length cDNA of 1044 bp, GI:30524341; The AD fusion was detected with anti-HA; source: yeast two-hybrid fusion, S. cerevisiae AH109; not shown: from the vector pGADT7), N-terminal, kept
B3: N-terminally biotinylated G72(138-153) peptide (peptide, UniProt P59103 138-153, looked up)
peptide: Biotin-KDQSCNHKEITSTKAE
B4: N-terminally biotinylated G72(123-153) peptide (peptide, UniProt P59103 123-153, looked up)
peptide: Biotin-RQPLERMWTCNYNQQKDQSCNHKEITSTKAE
modifications: cysteine pairing not given here

Key:
[1] = target: B3; assay: pull-down; 10 μg biotinylated G72 peptide on streptavidin Sepharose beads, 10 μg DAO-6H in phosphate-buffered saline, 4 °C, 3 h, ten washes; DAO detected by Western blotting (anti-His-tag); beads alone as control; details: both partners purified
[2] = target: B4; assay: as above; details: both partners purified
[3] = target: T1, BD-G72 (full-length G72 N-terminally …); assay: two-hybrid; β-galactosidase activity of AH109 transformants grown in SD/-2 broth at 30 °C, normalised to yeast with the AD and BD tags alone; details: partners not purified
[4] = target: B1; assay: cell-based or functional assay

Binder: B1
relative amount of DAO pulled down (against beads alone) [1]: 2.17 fold | relative amount of DAO pulled down (against beads alone) [2]: 1.38 fold

Binder: B2
relative interaction strength by β-galactosidase activity (AD tag with BD tag = 1) [3]: 5.7 fold

Binder: B3
initial velocity (V0) of DAO activity (400 nM DAO-6H, 40 mM D-alanine, 25 °C) with 0, 1, 3, 10 μM G72(138-153); V0 at 10 μM, fold of DAO alone in parentheses [4]: 2.94 mol hydrogen peroxide produced/min/g DAO

Binder: B4
initial velocity (V0) of DAO activity (400 nM DAO-6H, 40 mM D-alanine, 25 °C) with 0, 1, 3, 10 μM G72(123-153); V0 at 10 μM, fold of DAO alone in parentheses [4]: 2.71 mol hydrogen peroxide produced/min/g DAO
